Test results taken from PMC11423594, “Identification and characterization of archaeal-type FAD synthase as a novel tractable drug target from the parasitic protozoa Entamoeba histolytica” (mSphere, 2024).

Legend:
[1] = substrate: Cc1cc2nc3c(=O)[nH]c(=O)nc-3n(C[C@H](O)[C@H](O)[C@H](O)COP(=O)(O)O)c2cc1C; assay: purified protein; format: biochemical, Entamoeba histolytica; details: apparent, ATP fixed 100 µM (table footnote prints mM), 5 mM MgCl2, 50 mM Tris-HCl pH 7.5, 35°C
[2] = substrate: Nc1ncnc2c1ncn2[C@@H]1O[C@H](COP(=O)(O)OP(=O)(O)OP(=O)(O)O)[C@@H](O)[C@H]1O; assay: purified protein; format: biochemical, Entamoeba histolytica; details: apparent, FMN fixed 200 µM (table footnote prints mM), 5 mM MgCl2, 50 mM Tris-HCl pH 7.5, 35°C

B1: EhFADS (EHI_198800) (Entamoeba histolytica HM-1:IMSS) (protein)
chain: MKGKTKQTKQILHDLKERFGEGPYEVMIAGTFDLIHPGHIHFIQEAAQFGRVIVIIARDSVVKRIKQRETVLDEKMRQSIVEGIKGVSEVVLGCENGNWYEPILKRNPHLFLMGFNQPGDLFRFEKVIHEKGGRTIFRRSNSMEKSYSLQSSSQIRRRVIEIVNNKIQ
[1]
  Km: 0.0707 ± 0.0071 mM
  Vmax: 0.06 µmol/min/mg
  kcat: 0.0202 ± 0.002 s⁻¹
[2]
  Km: 0.0439 ± 0.0079 mM
  Vmax: 0.0649 µmol/min/mg
  kcat: 0.0218 ± 0.000333 s⁻¹
